Measurements reported in paper PMC6220267 (2018).

What was measured:
Experiment in all cases: BLI
Aβ42 oligomers (soluble) [1] = biological target: T1, Aβ42 oligomers (soluble) (UniProt P05067 672-713)
Aβ42 oligomers (soluble) [2] = biological target: T1, Aβ42 oligomers (soluble); remark: listed apart in the source
Aβ42 monomers = Aβ42 monomers (UniProt P05067 672-713)
Aβ40 monomers = Aβ40 monomers (UniProt P05067 672-711)

Kd (Aβ42 oligomers (soluble) [1])	koff (Aβ42 oligomers (soluble) [2])	Kd (Aβ42 monomers)	Kd (Aβ40 monomers)	Binder
1 pM	1e-07 s⁻¹	–	–	soluble mouse Trem2‐Fc (soluble ectodomain) (Fc fusion) LNTTVLQGMAGQSLRVSCTYDALKHWGRRKAWCRQLGEEGPCQRVVSTHGVWLLAFLKKRNGSTVIADDTLAGTVTITLKNLQAGDAGLYQCQSLRGREAEVLQKVLVEVLEDPLDDQDAGDLWVPEESSSFEGAQVEHSTSRNQETSFPPTS
–	–	290000 pM	140000 pM	soluble TREM2‐Fc (soluble ectodomain of human TREM2 fused to the Fc domain of human IgG4, V5 epitope) (Fc fusion) HNTTVFQGVAGQSLQVSCPYDSMKHWGRRKAWCRQLGEKGPCQRVVSTHNLWLLSFLRRWNGSTAITDDTLGGTLTITLRNLQPHDAGLYQCQSLHGSEADTLRKVLVEVLADPLDHRDAGDLWFPGESESFEDAHVEHSISRSLLEGEIPFPPTS
1 pM	1e-07 s⁻¹	–	–	soluble TREML1‐Fc (human, soluble ectodomain) (Fc fusion) QGIVGSLPEVLQAPVGSSILVQCHYRLQDVKAQKVWCRFLPEGCQPLVSSAVDRRAPAGRRTFLTDLGGGLLQVEMVTLQEEDAGEYGCMVDGARGPQILHRVSLNILPPEEEEETHKIGSLAENAFSDPAGSANPLEPSQDEKSIP
1 pM	1e-07 s⁻¹	–	–	soluble mouse Treml1‐Fc (soluble ectodomain) (Fc fusion) DSHPEVLQAPVGSSILVQCHYRLQDVRALKVWCQFLQEGCHPLVTSAVDRRAPGNGRIFLTDLGGGLLQVEMVTLQEEDTGEYGCVVEGAAGPQTLHRVSLLVLPPVPGPREGEEAEDEKETYRIGTGSLLEDPSLDPSASAGPHEFRRRENSIP
